Measurements as given in patent US20230045151A1, “COMPOSITIONS AND METHODS” (MONASH UNIVERSITY, priority 2020, published 2023).

System: CCL20
Assay: In vitro stimulation of lung cells enriched for airway epithelial cells, chemokine release
Assay type: cell-based, mouse
Conditions: LPS 10 μg/ml, 24 hours; EGF 100 ng/ml, amphiregulin 500 ng/ml or gefitinib 0.16 μM; lower efficacy than PCS
Method: Mice were euthanized by CO2 inhalation, instilled with a 1.5 ml dispase II (Sigma-Aldrich) intratracheally, followed by intratracheal injection of 0.5 ml 1% low melting point agarose (Sigma-Aldrich). Lungs were then covered with ice for 3 min, removed and placed in a 15 ml falcon tube with 2 ml of dispase II, and incubated for 45 min with gentle agitation. This was followed by mechanical disruption of the lung lobes using forceps in DMEM supplemented with DNAse I (Sigma-Aldrich, 1U/ml), filtration through 70- and 40-μM cell strainers (Falcon®, Corning) and lysis of erythrocytes using red blood cell lysing buffer (BD Biosciences). Lung cells were plated in a flat-bottom 24-well or 96-well plates (Costar) coated with fibronectin (Sigma-Aldrich, 10 μg/ml) at the density of 1 mln or 0.2 mln cells/well, respectively.
5% CO2, after which the supernatant was collected and stored at −20° C. until further use.

B1: amphiregulin: low affinity EGFR ligand (protein, UniProt P15514 101-187, looked up)
Amphiregulin: SVRVEQVVKPPQNKTESENTSDKPKRKKKGGKNGKNRRNRKKKNPCNAEFQNFCIHGECKYIEHLEAVTCKCQQEYFGERCGEKSMK
modifications: Amphiregulin
- CCL20 production by lung cells stimulated with LPS: selective reduction
